Results reported in patent US20230416394A1 (ELPISCIENCE SUZHOU BIOPHARMA, published 2023).
Changes are numbered by the printed parent chain. Where “and” joins values, the source holds several entries; their conditions need not be identical. Equal values may be shown once. Blank lines part the entries; values can stand above or below the binder they belong to.

Biological target: T1, human CD39 (human, UniProt P49961 1-510)
T1 sequence: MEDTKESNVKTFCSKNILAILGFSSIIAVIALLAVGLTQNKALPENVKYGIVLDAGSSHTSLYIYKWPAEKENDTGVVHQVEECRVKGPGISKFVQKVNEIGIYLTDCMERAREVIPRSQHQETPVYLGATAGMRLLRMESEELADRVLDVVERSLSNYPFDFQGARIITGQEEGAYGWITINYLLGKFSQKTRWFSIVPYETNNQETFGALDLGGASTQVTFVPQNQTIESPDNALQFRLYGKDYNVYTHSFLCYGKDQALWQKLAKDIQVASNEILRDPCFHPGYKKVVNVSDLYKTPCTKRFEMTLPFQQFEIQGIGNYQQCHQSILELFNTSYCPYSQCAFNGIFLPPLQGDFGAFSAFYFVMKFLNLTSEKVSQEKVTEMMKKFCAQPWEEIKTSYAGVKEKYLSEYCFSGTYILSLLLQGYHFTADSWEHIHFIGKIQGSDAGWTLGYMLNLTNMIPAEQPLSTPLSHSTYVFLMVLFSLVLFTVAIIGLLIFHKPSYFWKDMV
Test: cell-based or functional assay

ATPase inhibition on SK-MEL-28 cells, IC50: 0.158 nM and 0.209 nM
B1: c23 (antibody, V domains shown)
VH: EVQLQQSGAELLRPGASVKLSCTASGYNLKDTFLHWVKQRPEQGLEWIGRIDPANGNIKYDPKFQGKATLTADTSSNTAYLQLISLTSEDTAVYYCANSPYYYGSGYRIFDVWGAGTTVTVSS
VL: QIVLTQSPAIMSASPGEKVTITCSAFSSVNYMHWYQQKPGTSPKLLIYTTSNLASGVPTRFSGSGSGTSYSLTISRMEAEDAATYYCQQRSTYPFTFGSGTKLEIQ

ATPase inhibition on SK-MEL-28 cells, IC50: 0.264 nM
B2: hu23.201 (antibody, V domains shown)
VH: QVQLVQSGAEVKKPGASVKVSCKASGYTLKDTFLHWVRQAPGQRLEWMGRIDPANGNIKYDPKFQGRVTLTADTSSNTAYMELSSLRSEDTAVYYCANSPYYYGSGYRIFDVWGQGTLVTVSS
VL: EIVLTQSPATLSLSPGERATLSCSAFSSVNYMHWYQQKPGQSPRLLIYTTSNLASGIPARFSGSGSGTDYTLTISSLEPEDFAVYYCQQRSTYPFTFGQGTKLEIK

ATPase inhibition on SK-MEL-28 cells, IC50: 0.964 nM
B3: hu23.H1L2 (antibody, V domains shown)
VH: B2 VH with T28N, L70I, A72R, S76A, N77S, N98R, L118T
VL: B2 VL with S42A

ATPase inhibition on SK-MEL-28 cells, IC50: 0.59 nM
B4: hu23.H1L4 (antibody, V domains shown)
VH: B2 VH with T28N, L70I, A72R, S76A, N77S, N98R, L118T
VL: B2 VL with L13A, A19V, L21I, S42A, L77M

ATPase inhibition on SK-MEL-28 cells, IC50: 0.13 nM
B5: hu23.H5L6 (antibody, V domains shown)
VH: B2 VH with T28N, R44G, L70I, S76A, S84I, L118T
VL: B2 VL with E1Q, L13A, S42A, R44K, I57V, A59T, D69S, L77M

ATPase inhibition on SK-MEL-28 cells, IC50: 0.767 nM
B6: hu23.H2L2 (antibody, V domains shown)
VH: B2 VH with T28N, R44G, L70I, S76A, N77S, L118T
VL: B2 VL with S42A

ATPase inhibition on SK-MEL-28 cells, IC50: 0.121 nM
B7: hu23.H7L6 (antibody, V domains shown)
VH: EVQLVQSGAEVKKPGASVKLSCKASGYNLKDTFLHWVKQAPGQGLEWIGRIDPANGNIKYDPKFQGKATLTADTSANTAYLELISLRSEDTAVYYCANSPYYYGSGYRIFDVWGQGTTVTVSS
VL: B2 VL with E1Q, L13A, S42A, R44K, I57V, A59T, D69S, L77M

ATPase inhibition on SK-MEL-28 cells, IC50: 0.386 nM
B8: hu23.211 (antibody, V domains shown)
VH: B2 VH with Q1E, L70I
VL: B2 VL with S42A

ATPase inhibition on SK-MEL-28 cells, IC50: 0.487 nM
B9: hu23.H4L4 (antibody, V domains shown)
VH: B7 VH with E1Q, K67R, N77S, I84S
VL: B2 VL with L13A, A19V, L21I, S42A, L77M

ATPase inhibition on SK-MEL-28 cells, IC50: 0.147 nM
B10: hu23.H7L1 (antibody, V domains shown)
VH: B7 VH
VL: B2 VL with S42A, Y70F

ATPase inhibition on SK-MEL-28 cells, IC50: 0.32 nM
B11: hu23.203 (antibody, V domains shown)
VH: B2 VH
VL: B2 VL with S12T, S42A

ATPase inhibition on SK-MEL-28 cells, IC50: 0.144 nM
B12: hu23.H7L5 (antibody, V domains shown)
VH: B7 VH
VL: B2 VL with E1Q, S42A, A59T, D69S
